Reference: paper PMC12746149, “Gluebodies Offer a Route To Improve Crystal Reliability and Diversity through Transferable Nanobody Mutations That Introduce Constitutive Close Contacts” (ACS Central Science, 2025)
Substitutions are numbered along the chain they refer to. Names and notes keep the numbering of the source. Like-named read-outs stand apart in the source and are kept apart here.

B1: RECQL5 nanobody variant G1-001 (VHH)
VHH: QVQLQESGGGLVQAGGSLRLSCAASGSIFSINRMGWYRQAPGKQRELVAAITSGGSTNYAYSVKGRFTISRDNAKNTVYLQMNSLKPEDTAIYYCEAYGTYTLAPTGEGEYDDYWGQGTQVTVSA
notes: the mutated chain is in PDB 7ZML; numbers count on: IMGT numbering; six-residue tail left after TEV cleavage of the C-terminal 6xHis tag; vector pNIC-CTH0; source: E. coli KRX, purified (Ni-NTA, TEV cleavage, reverse Ni-NTA); not shown: His6, C-terminal, cleaved
B2: RECQL5 nanobody variant G2-001 (VHH)
VHH: B1 VHH with S7N, L11C
notes: as the chain of m3 (G1-001, D69Y) with S7N:L12C; the mutated chain is in PDB 7ZMM; numbers count on: IMGT numbering; six-residue tail left after TEV cleavage of the C-terminal 6xHis tag; vector pNIC-CTH0; made by mutagenesis from G1-001; source: E. coli KRX, purified (Ni-NTA, TEV cleavage, reverse Ni-NTA); not shown: His6, C-terminal, cleaved
B3: nanobody of the MAGEB1 complex (PDB 6R7T) (VHH)
VHH: QVQLQESGGGLVQPGGSLRLSCAASGFTFSTYAMSWFRQAPGKGLEWVASINSSGGGIQSYADSVKGRFTISRDNAKNTLYLQMNSLEPEDTAVYYCAAAAWRVGTYDYRGQGTQVTVSS
notes: naïve (not engineered) nanobody scaffold
B4: YNMAGEB1A-c001 (VHH)
VHH: QVQLQESGGGLVQAGGSLRLSCAASGFTFDDYAIGWFRQVPGKEREGVSCTSSSVGSTYYADSVKGRFTITSDNAKNTVYLQMNSLKPEDTAVYYCAADSYPYGSTWCRPPFFASWGQGTQVTVS
B5: RECQL5 nanobody variant G4-043 (VHH)
VHH: QVQLVENGGGCVQATGSLRLSCAASGSIFSINRMTWYRQAPGKEREWVAAITSGGSTNYADSVKGRFTISRDSAKGTVYLQMNSLKPEDTAVYYCEAYGTYTLAPTGEGEYDDYWGQGTQVMVS
notes: the mutated chain is in PDB 7ZMS; numbers count on: IMGT numbering; G4 and G5 constructs were amplified from the synthesised DNA fragments with a different set of primers; source: E. coli KRX, purified (Ni-NTA, TEV cleavage, reverse Ni-NTA); not shown: MBP (inferred from the G3 scaffold), N-terminal, cleaved; His6 (inferred from the G3 scaffold), N-terminal, cleaved
B6: RECQL5 nanobody variant G3-048 (VHH)
VHH: B5 VHH with M122T
notes: the mutated chain is in PDB 7ZMN; numbers count on: IMGT numbering; synthesised DNA in pNIC-MBP2-LIC; no ENLYFQ tail; source: E. coli KRX, purified (Ni-NTA, TEV cleavage, reverse Ni-NTA); not shown: MBP, N-terminal, cleaved; His6, N-terminal, cleaved
B7: RECQL5 nanobody variant G3-052 (VHH)
VHH: B5 VHH with T15G, Q81Y, M122T
notes: the mutated chain is in PDB 7ZMO; numbers count on: IMGT numbering; synthesised DNA in pNIC-MBP2-LIC; no ENLYFQ tail; source: E. coli KRX, purified (Ni-NTA, TEV cleavage, reverse Ni-NTA); not shown: MBP, N-terminal, cleaved; His6, N-terminal, cleaved
B8: RECQL5 nanobody variant G2*-006 (VHH)
VHH: B5 VHH with C11N, T15G, D61Y, S73N, G76N, M122T
notes: the mutated chain is in PDB 7ZMQ; source: E. coli KRX, purified (Ni-NTA, TEV cleavage, reverse Ni-NTA); not shown: MBP (from the vector pNIC-MBP2-LIC), N-terminal, cleaved; His6 (from the vector pNIC-MBP2-LIC), N-terminal, cleaved
B9: RECQL5 nanobody variant G2*-011 (VHH)
VHH: B5 VHH with T15G, R19K, D61Y, S73N, G76N, M122T
notes: the mutated chain is in PDB 7ZMR; source: E. coli KRX, purified (Ni-NTA, TEV cleavage, reverse Ni-NTA); not shown: MBP (from the vector pNIC-MBP2-LIC), N-terminal, cleaved; His6 (from the vector pNIC-MBP2-LIC), N-terminal, cleaved
B10: 3A02 gluebody (Nb 3A02 nanobody with the Gluebody mutations S7N, Q14K and T125M) (VHH)
VHH: QVQLQENGGGLVKPGGSLRLSCAASGFTLSDYVMTWVRQAPGKGPEWVSRISAGGSTRYVDSVKGRFTISRDNAKNTMYLQMNSLKPEDTAVYYCARGSTLFSTNWDYRGQGTQVMVS
notes: Nb 3A02 with three stated mutations; the mutated chain is in PDB 9H77; also called Gb; not shown: His tag, N-terminal, cleaved

How the values were obtained:
[1] = target: T1, truncated RECQL5 protein (11-453) (UniProt O94762); experiment: SEC; purified nanobody variants run with RECQL5 on size exclusion chromatography; comigration; conditions: both partners purified
T1 construct: RECQL5, residues 11-453, in pNIC-Bsa4; source: E. coli BL21-DE3-pRARE, purified (Ni-NTA, TEV cleavage, reverse Ni-NTA); not shown: His6, N-terminal, cleaved

[2] = target: T1, truncated RECQL5 protein (11-453); experiment: crystal structure; RECQL5 and nanobody mixed 1:1.5, complex isolated by SEC, Hampton Index screen; molecular replacement with PDB 5LB8 and chain A of 2X1O; conditions: both partners purified
[3] = target: T2, MAGEB1 (UniProt P43366); experiment: crystal structure; nanobody-target complex in two commercial coarse screens (192 conditions, two temperatures); conditions: both partners purified
T2 construct: MAGEB1

[4] = target: T2, MAGEB1
[5] = target: T3, MPP8 chromodomain (residues 53-117) (UniProt Q99549); experiment: crystal structure; MPP8 and 3A02 gluebody combined 1:1.2, complex isolated on Superdex 75 in 20 mM Hepes pH 7.5, 80 mM NaCl; vapor diffusion at 18 °C, 100 mM sodium acetate, 25% PEG 3000; conditions: both partners purified
T3 construct: MPP8, the region corresponding to the chromodomain, residues 53-117, in a modified pET30 vector; not shown: His tag, N-terminal, cleaved
T3 sequence (Q99549 53-117): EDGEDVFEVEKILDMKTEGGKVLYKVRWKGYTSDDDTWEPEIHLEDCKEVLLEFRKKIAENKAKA

T1 sequence (O94762 11-453): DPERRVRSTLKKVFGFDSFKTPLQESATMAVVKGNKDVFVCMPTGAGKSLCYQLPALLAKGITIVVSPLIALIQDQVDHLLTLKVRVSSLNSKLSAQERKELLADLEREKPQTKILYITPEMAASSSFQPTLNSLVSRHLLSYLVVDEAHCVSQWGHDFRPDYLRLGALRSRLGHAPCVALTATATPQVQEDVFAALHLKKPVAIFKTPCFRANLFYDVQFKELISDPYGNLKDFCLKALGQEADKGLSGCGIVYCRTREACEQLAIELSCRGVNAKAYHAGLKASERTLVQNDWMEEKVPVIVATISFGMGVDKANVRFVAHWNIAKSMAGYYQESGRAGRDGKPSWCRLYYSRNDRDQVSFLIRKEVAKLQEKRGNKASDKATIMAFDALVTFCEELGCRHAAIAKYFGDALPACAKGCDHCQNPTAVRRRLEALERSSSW
T2 sequence (P43366 whole entry): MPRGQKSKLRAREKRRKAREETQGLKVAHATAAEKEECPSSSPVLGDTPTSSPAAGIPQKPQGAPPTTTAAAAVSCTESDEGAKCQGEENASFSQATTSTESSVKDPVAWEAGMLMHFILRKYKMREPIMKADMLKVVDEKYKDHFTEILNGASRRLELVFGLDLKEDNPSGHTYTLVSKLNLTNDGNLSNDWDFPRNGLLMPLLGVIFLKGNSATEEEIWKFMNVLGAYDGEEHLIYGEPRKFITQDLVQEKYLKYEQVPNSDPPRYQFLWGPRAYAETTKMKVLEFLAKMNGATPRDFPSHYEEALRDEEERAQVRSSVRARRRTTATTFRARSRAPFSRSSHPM

Binder	binding result [2]	other results
B1		binding result [1]: binds
B2	binds	
B3		binding result [3]: binds
B4		binding result [4]: binds
B5	binds	
B6	binds	
B7	binds	
B8	binds	
B9	binds	
B10		binding result [5]: binds
